For one sequence, binding results are on record in PMC6854852.

The subject of data set [1] is T1, SAN8-rBraR (unphosphorylated) D96V (Staphylococcus aureus SAN8 (nisin A-resistant mutant of MW2)), ORF:7b46c191.
T1 sequence: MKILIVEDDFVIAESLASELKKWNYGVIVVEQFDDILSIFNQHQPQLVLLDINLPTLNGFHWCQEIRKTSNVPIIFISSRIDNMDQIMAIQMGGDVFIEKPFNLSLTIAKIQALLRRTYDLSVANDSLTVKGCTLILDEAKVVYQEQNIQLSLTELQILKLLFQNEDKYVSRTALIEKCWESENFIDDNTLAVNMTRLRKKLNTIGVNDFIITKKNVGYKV
Put plainly: competition. Particulars: EMSA: 5 ng DIG-labeled DNA, rBraR (given as 50 mM) in DIG Gel Shift Kit 2nd Generation (Roche) buffer, 6% native PAGE; binding temperature and pH not stated ….

The test system is the same in data set [2]. The data set is described as follows: EMSA. The conditions noted are these: EMSA: 5 ng DIG-labeled DNA, rBraR (given as 50 mM) in DIG Gel Shift Kit 2nd Generation (Roche) buffer, 6% native PAGE; binding temperature and pH not stated ….

Turning to “ATCACTTAGAAAGCACCATTGCTTTTGTCTAATATGTACGATGAATCTGTATCCTCACTCAAAAATCTACTACGTAGCGATAGCTTTCAACTCTGTAAGGTTCAAACATTGAATTGTAAGTTTAGATAAAGGCTACTACTCCAAACATTATTTAAAATGAAATTAAATACAAAAGGAGTGAGACTATGACAATATTATCAGTGCAACATGTTTCAAAAACATACGG (double strand) [vraDE-F1]”, the binding entry in data set [1] and in data set [2] was “binds” each time.
